Results taken from PMC9529352.

Target: N protein WT (SARS-CoV-2, UniProt P0DTC9 1-419)
Experiment: mass photometry
Details: protein: recombinant; tags: 6xHis-SUMO tag cleaved by Ulp1; chain copies: 12; hairpin

B1: SL8 RNA (structured_RNA)
RNA: GAUGGCACUUGUGGCUUAGUAGAAGUUGAAAAAGGCGUUUUGCCUCAACUUGAACAGCCCUAUGUGUUCAUC
- binding result: binds
